From patent US8420776B2, “Ube2G2 binding domain in the ubiquitin ligase gp78 and methods of use thereof” (The United States of America, as Represented by the …, priority 2004, dated 2013)

B1: wild type gp78: full-length wild type human gp78 ubiquitin ligase expressed in cells (protein, listed as Homo sapiens)
chain: MPLLFLERFPWPSLRTYTGLSGLALLGTIISAYRALSQPEAGPGEPDQLTASLQPEPPAPARPSAGGPRARDVAQYLLSDSLFVWVLVNTACCVLMLVAKLIQCIVFGPLRVSERQHLKDKFWNFIFYKFIFIFGVLNVQTVEEVVMWCLWFAGLVFLHLMVQLCKDRFEYLSFSPTTPMSSHGRVLSLLVAMLLSCCGLAAVCSITGYTHGMHTLAFMAAESLLVTVRTAHVILRYVIHLWDLNHEGTWEGKGTYVYYTDFVMELTLLSLDLMHHIHMLLFGNIWLSMASLVIFMQLRYLFHEVQRRIRRHKNYLRVVGNMEARFAVATPEELAVNNDDCAICWDSMQAARKLPCGHLFHNSCLRSWLEQDTSCPTCRMSLNIADNNRVREEHQGENLDENLVPVAAAEGRPRLNQHNHFFHFDGSRIASWLPSFSVEVMHTTNILGITQASNSQLNAMAHQIQEMFPQVPYHLVLQDLQLTRSVEITTDNILEGRIQVPFPTQRSDSIRPALNSPVERPSSDQEEGETSAQTERVPLDLSPRLEETLDFGEVEVEPSEVEDFEARGSRFSKSADERQRMLVQRKDELLQQARKRFLNKSSEDDAASESFLPLEGASSDPVTLRRRMLAAAAERRLQKQQTS
B2: gp78611: gp78 truncated after residue 611 of SEQ ID NO:2 (protein, listed as Homo sapiens)
chain: MPLLFLERFPWPSLRTYTGLSGLALLGTIISAYRALSQPEAGPGEPDQLTASLQPEPPAPARPSAGGPRARDVAQYLLSDSLFVWVLVNTACCVLMLVAKLIQCIVFGPLRVSERQHLKDKFWNFIFYKFIFIFGVLNVQTVEEVVMWCLWFAGLVFLHLMVQLCKDRFEYLSFSPTTPMSSHGRVLSLLVAMLLSCCGLAAVCSITGYTHGMHTLAFMAAESLLVTVRTAHVILRYVIHLWDLNHEGTWEGKGTYVYYTDFVMELTLLSLDLMHHIHMLLFGNIWLSMASLVIFMQLRYLFHEVQRRIRRHKNYLRVVGNMEARFAVATPEELAVNNDDCAICWDSMQAARKLPCGHLFHNSCLRSWLEQDTSCPTCRMSLNIADNNRVREEHQGENLDENLVPVAAAEGRPRLNQHNHFFHFDGSRIASWLPSFSVEVMHTTNILGITQASNSQLNAMAHQIQEMFPQVPYHLVLQDLQLTRSVEITTDNILEGRIQVPFPTQRSDSIRPALNSPVERPSSDQEEGETSAQTERVPLDLSPRLEETLDFGEVEVEPSEVEDFEARGSRFSKSADERQRMLVQRKDELLQQARKRFLNKSSEDDAASESF
B3: gp78595: gp78 truncated after amino acid 595 of SEQ ID NO:2 (protein, listed as Homo sapiens)
chain: MPLLFLERFPWPSLRTYTGLSGLALLGTIISAYRALSQPEAGPGEPDQLTASLQPEPPAPARPSAGGPRARDVAQYLLSDSLFVWVLVNTACCVLMLVAKLIQCIVFGPLRVSERQHLKDKFWNFIFYKFIFIFGVLNVQTVEEVVMWCLWFAGLVFLHLMVQLCKDRFEYLSFSPTTPMSSHGRVLSLLVAMLLSCCGLAAVCSITGYTHGMHTLAFMAAESLLVTVRTAHVILRYVIHLWDLNHEGTWEGKGTYVYYTDFVMELTLLSLDLMHHIHMLLFGNIWLSMASLVIFMQLRYLFHEVQRRIRRHKNYLRVVGNMEARFAVATPEELAVNNDDCAICWDSMQAARKLPCGHLFHNSCLRSWLEQDTSCPTCRMSLNIADNNRVREEHQGENLDENLVPVAAAEGRPRLNQHNHFFHFDGSRIASWLPSFSVEVMHTTNILGITQASNSQLNAMAHQIQEMFPQVPYHLVLQDLQLTRSVEITTDNILEGRIQVPFPTQRSDSIRPALNSPVERPSSDQEEGETSAQTERVPLDLSPRLEETLDFGEVEVEPSEVEDFEARGSRFSKSADERQRMLVQRKDELLQQARK

What was measured:
Type in all cases: cell-based
ERAD substrate CD3-δ [1] = assay: CD3-δ level in co-transfected cells by immunoblotting; conditions: co-transfection with CD3-δ; immunoblot
Protocol: (§1) Transfections of HT1080, NIH 3T3 and HEK 293T cells were carried out ˜24 hr after plating using Polyfect (Qiagen, Valencia, Calif.) and cells harvested after ˜48 hr. J558 cells were transfected by electroporation using Bio-rad GENE pulser II at settings of 250 v, 950uF. Vector without insert was used to equalize total plasmid. In most experiments 0.15 μg of pEGFP-C1 served as an internal control. For experiments not involving immunoprecipitation, 6×10^5 cells were plated in 6 well plates and cell lysis was with Mammalian Protein Extraction Reagent (Pierce). For immunoprecipitation, 2.4×10^6 cells were seeded in 100 mm dishes and cells were lysed in RIPA buffer (1×PBS, 1% Nonidet P40. 0.5% sodium deoxycholate, 0.1% SDS). Lysis buffers were supplemented with Protease Inhibitor Cocktail (Sigma) and 10 mM iodoacetamide. Supernatants were analyzed after a 10,000×g centrifugation using standard techniques for immunoprecipitation, SDS-PAGE, immunoblotting and ECL. Treatment of cells with MG132 (Sigma) was at 50 μM for eight hr. Cycloheximnide was used at 50 μg/ml. All cells were collected at the end of the six hr chase.
FIG. 7 depicts the stabilization of CD3-δ protein in cells transfected with the G2BD, but not with the G2BD with amino acids 579-584 (of SEQ ID NO:2) mutated. HEK 293T cells were transfected with the ERAD substrate CD3-δ along with the indicated GFP fusions of gp78. The left and right sides are two separate experiments.
To test this, GFP fusions of either a minimal E2 binding domain (GFP-574-611) or a more extended region that includes the C-terminus of gp78 (GFP-574-643) were evaluated (FIG. 21A). […] To assess this further, the C-terminal region of gp78 was fused to the eight amino acid Flag tag. […] Mdm2 is a RING finger E3 for both itself and p53 that is neither an ERAD substrate nor known to utilize Ube2G2 as an E2. […] To establish with certainty that the effect observed with expression of the Ube2G2 binding site is a consequence of binding endogenous E2, and not due to other unanticipated effects, cells were co-transfected with increasing amounts of Ube2G2 (FIG. 21C, lanes 3 and 4). […] These findings clearly establish that the isolated E2 binding site has the potential to markedly alter ERAD of CD3-δ. To ensure the effect observed was not peculiar to one substrate, TCR-α was evaluated (FIG. 21D).

ERAD substrate CD3-δ [2] = assay: Cycloheximide chase of CD3-δ in co-transfected cells; conditions: co-transfection with HA-CD3-δ
Protocol: as §1
(§2) To evaluate protein turnover in more detail, cycloheximide chase experiments were performed (FIGS. 20C and 20D). […] In agreement with FIG. 20A, CD3-δ degradation was accelerated with wild type gp78 (FIGS. 20C and 20D middle panels; effects of full-length forms of gp78 on CD3-δ from FIGS. 20C and 20D are quantified in FIG. 20E).

gp78 [3] = assay: gp78 ubiquitylation in transfected cells (IP anti-gp78, IB anti-ubiquitin); conditions: 50 μM MG132 eight hours
Protocol: FIGS. 20A-20E depict the requirement of multiple domains of gp78 to target itself and a heterologous ERAD substrate. (FIG. 20A) Cells were co-transfected with the indicated forms of full length gp78 together with CD3-δ and lysates analyzed by IB. (B) Cells were transfected with wild type and mutant gp78 plasmids as indicated. Samples were treated with 50 μM MG132 for eight hours, lysates IP'ed with anti-gp78 followed by […] with either antiubiquitin (upper) or anti-gp78 (lower). Arrow in upper panel indicates migration of unmodified gp78. (FIGS. 20C and 20D) Cells were co-transfected with HA-CD3-δ and wild type (WT) or mutant forms of gp78. Cells were treated with cycloheximide (CHX) as indicated. (FIG. 20E) Graphic representation of CD3-δ levels from FIGS. 20C and 20D (fall length gp78 transfections only), Cue-m1, 2 is the average of data shown in FIGS. 20C and 20D.
as §1, with “Lysis buffers were supplemented with Protease Inhibitor Cocktail (Sigma) and 10 mM iodoacetamide.” left out, “Treatment of cells with MG132 (Sigma) was at 50 μM for eight hr. Cycloheximnide was used at 50 μg/ml. All cells were collected at the end of the six hr chase.” left out
gp78 is degraded in a proteasome-dependent manner, and deletion of the entire cytoplasmic domain results in its stabilization. […] To determine the significance of the RING finger, Cue domain and Ube2G2 binding site on gp78 stability, mutations of each were evaluated within full-length gp78. […]

Myc-Ube2G2 = target: T1, Myc-Ube2G2 (Mus musculus, UniProt P60605); assay: Co-immunoprecipitation with co-expressed Myc-Ube2G2 in cells; conditions: anti-Myc IP, anti-gp78 IB; MG132 8 hr
T1 construct: expressed in transfected cells; host or cells: HEK 293T
T1 sequence (P60605 1-165): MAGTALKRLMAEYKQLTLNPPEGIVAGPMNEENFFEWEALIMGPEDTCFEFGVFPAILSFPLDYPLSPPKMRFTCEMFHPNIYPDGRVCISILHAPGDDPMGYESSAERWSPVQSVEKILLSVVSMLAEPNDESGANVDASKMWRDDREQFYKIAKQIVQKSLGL
Protocol: as §1
FIG. 5 depicts the results of immunoprecipitation of Ube2G2 (MmUbc7) from HEK 293T cells co-transfected with a plasmid encoding myc-tagged MmUbc7/Ube2G2 together with s plasmid encoding various forms of gp78. HEK 293T cells were transfected with a plasmid encoding myc-tagged MmUbc7/Ube2G2 together with plasmids encoding various forms of gp78. After 48 hours, cells were harvested and co-immuntoprecipitated with an anti-Myc tage. Anti-gp78 was used for detection. “R2M” indicates a mutation of two crucial residues in the RING finger. “T” indicates C terminal truncations at the indicated amino acids. ΔB is the mutation indicated above in FIG. 4 in the context of the full length gp78 and “Cue12M” indicates mutations in the Cue domain of gp78.
To confirm the significance of the Ube2G2 binding site in cells, a variety of mutations and truncations of full-length gp78 were tested for binding of co-expressed Myc-Ube2G2 (FIG. 19A). Cells were treated with the proteasome inhibitor MG132 in an attempt to equalize levels of the various forms of gp78.

gp78 [4] = assay: Cycloheximide chase of gp78 in transfected cells; conditions: compared to wild type gp78
Protocol: as §1, §2

Molecule | effect on CD3-δ level (stabilization) (ERAD substrate CD3-δ [1]) | effect on CD3-δ degradation (ERAD substrate CD3-δ [2]) | gp78 ubiquitylation (ubiquitin immunoreactivity) (gp78 [3]) | E2 association of full-length gp78 forms with co-expressed Myc-Ube2G2 (Myc-Ube2G2) | gp78 stability (gp78 [4])
B1 | decreased CD3-δ levels | accelerated | ubiquitylation was observed | – | –
B2 | – | enhanced loss of CD3-δ | – | retained E2 binding | did not stabilize gp78
B3 | – | minimal stabilization of CD3-δ | – | loss of E2 binding | stabilized gp78
